For four substances, Kd and BMax (relative luminescent units) results are on record in patent US20220054648A1.

Experiment [1] has as its target human Trop-2 (human) (UniProt P09758). In words: cell binding assay (cell line not given).
Experiment [2] shares this target. In words: cell binding assay on NCI-N87 cells, anti-mouse-HRP secondary, luminescence.

Chain of human Trop-2 (human) (P09758 27-323): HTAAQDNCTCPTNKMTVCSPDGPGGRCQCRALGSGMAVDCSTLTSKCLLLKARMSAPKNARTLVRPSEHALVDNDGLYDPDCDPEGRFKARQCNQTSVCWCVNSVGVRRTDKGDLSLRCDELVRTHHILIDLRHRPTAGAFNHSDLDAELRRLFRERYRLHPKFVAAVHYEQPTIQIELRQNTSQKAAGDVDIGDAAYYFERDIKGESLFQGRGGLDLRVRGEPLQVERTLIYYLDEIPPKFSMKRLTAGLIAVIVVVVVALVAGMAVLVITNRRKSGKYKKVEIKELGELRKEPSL

In general, Kd refers to a measure of binding affinity in units of concentration. In the experiment with human Trop-2 (human) [1], “hRS7-CL2-SN-38 (anti-Trop-2 ADC, hRS7 IgG conjugated to CL2-SN-38) (antibody)” registered an equilibrium dissociation constant (Kd) of 1.2 nM. Consider “MAB650 murine monoclonal antibody against human Trop-2 (R&D Systems)”, for which the BMax (relative luminescent units) with human Trop-2 (human) [2] was 6020.

Regarding “162-46.2 murine monoclonal antibody against human Trop-2”, the BMax (relative luminescent units) in the experiment with human Trop-2 (human) [2] came out at 8470. In turn, “hRS7-CL2A-SN-38 (anti-Trop-2 ADC, hRS7 IgG conjugated to CL2A-SN-38) (antibody)” came in with an equilibrium dissociation constant (Kd) with human Trop-2 (human) [1] of 1.2 nM.
